Sequences and labels used below:
B1: TMEM192 (parent)
chain: ILGKVILWILHLLLECYIQYHHSK
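Further: lentivirally expressed fusions sorted by FACS into six bins by GFP to DsRed ratio, PSI derived from sequencing read proportions per bin multiplied by bin number.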

This data set covers variants of B1. As to the kind of experiment: protein stability index of a GFP-peptide fusion (GPS, HEK-293T) (PSI 1-6); higher = more stable. Particulars: c terminus: a fixed tail appended.
Consider ILGKVIWWILHLLLECYIQYHHSK [L7W], for which the protein stability index stood at 3.41. The same measure for ILGKVIKWILHLLLECYIQYHHSK [L7K]: 2.36; for ILGKVIPWILHLLLECYIQYHHSK [L7P]: 1.85; for ILGKVIEWILHLLLECYIQYHHSK [L7E]: 3.07.

Turning to ILGKVIHWILHLLLECYIQYHHSK [L7H], the protein stability index is 2.6.

Turning to ILGKVINWILHLLLECYIQYHHSK [L7N], the protein stability index amounted to 2.51.

With ILGKVIDWILHLLLECYIQYHHSK [L7D], the protein stability index was determined as 2.86. Turning to ILGKVISWILHLLLECYIQYHHSK [L7S], the protein stability index was determined as 3.17. The same measure for ILGKVIRWILHLLLECYIQYHHSK [L7R]: 1.75. Consider ILGKVITWILHLLLECYIQYHHSK [L7T], for which the protein stability index turned out to be 3.57. Consider ILGKVIQWILHLLLECYIQYHHSK [L7Q], for which the protein stability index came out at 3.32. Consider ILGKVIGWILHLLLECYIQYHHSK [L7G], for which the protein stability index amounted to 4.45.

Consider ILGKVIVWILHLLLECYIQYHHSK [L7V], for which the protein stability index amounted to 1.74. The same measure for ILGKVILWILHLQLECYIQYHHSK [L13Q]: 2.11; for ILGKVILWILHLDLECYIQYHHSK [L13D]: 2.47. As to ILGKVILWILHLWLECYIQYHHSK [L13W], the protein stability index was determined as 2.21. The same measure for ILGKVILWILHLSLECYIQYHHSK [L13S]: 2.98. As for ILGKVILWILHLCLECYIQYHHSK [L13C], the protein stability index amounted to 2.76. Take ILGKVILWILHLFLECYIQYHHSK [L13F]: the protein stability index was 2.5. In the case of ILGKVILWILHLKLECYIQYHHSK [L13K], the protein stability index worked out at 2.9. ILGKVILWILHLTLECYIQYHHSK [L13T]: the protein stability index turned out to be 2.88. For ILGKVILWILHLGLECYIQYHHSK [L13G], the protein stability index came to 2.25. The same measure for ILGKVILWILHLVLECYIQYHHSK [L13V]: 2.8; for ILGKVILWILHLALECYIQYHHSK [L13A]: 3.26. In the case of ILGKVILWILHLYLECYIQYHHSK [L13Y], the protein stability index worked out at 2.97. The same measure for ILGKVILWILHLNLECYIQYHHSK [L13N]: 3.18. Consider ILGKVILWILHLRLECYIQYHHSK [L13R], for which the protein stability index was found to be 2.37. In the case of ILGKVILWILHLILECYIQYHHSK [L13I], the protein stability index was 2.04. The same measure for ILGKVILWILHLHLECYIQYHHSK [L13H]: 2.83; for ILGKVILWILHLPLECYIQYHHSK [L13P]: 3.39. Turning to ILGKVILWILHLMLECYIQYHHSK [L13M], the protein stability index is 3.1. As for ILGKVILWILFLLLECYIQYHHSK [H11F], the protein stability index is 3.18.

Regarding ILGKVILWILQLLLECYIQYHHSK [H11Q], the protein stability index turned out to be 2.29. On to ILGKVILWILILLLECYIQYHHSK [H11I], for which the protein stability index amounted to 3.89. For ILGKVILWILTLLLECYIQYHHSK [H11T], the protein stability index turned out to be 2.63. Consider ILGKVILWILKLLLECYIQYHHSK [H11K], for which the protein stability index turned out to be 3.6. The same measure for ILGKVILWILSLLLECYIQYHHSK [H11S]: 2.22. As for ILGKVILWILVLLLECYIQYHHSK [H11V], the protein stability index stood at 3.77. Regarding ILGKVILWILRLLLECYIQYHHSK [H11R], the protein stability index was determined as 3.16. The same measure for ILGKVILWILALLLECYIQYHHSK [H11A]: 2.76; for ILGKVILWILCLLLECYIQYHHSK [H11C]: 3.27.

Regarding ILGKVILWILWLLLECYIQYHHSK [H11W], the protein stability index stood at 2.94. For ILGKVILWILPLLLECYIQYHHSK [H11P], the protein stability index was found to be 3.26. With ILGKVILWILMLLLECYIQYHHSK [H11M], the protein stability index amounted to 4.49. For ILGKVILWILYLLLECYIQYHHSK [H11Y], the protein stability index is 2.56. As for ILGKVILWILGLLLECYIQYHHSK [H11G], the protein stability index turned out to be 2.09. The same measure for ILGKVILWILNLLLECYIQYHHSK [H11N]: 2.91.

Regarding ILGKVILWILHKLLECYIQYHHSK [L12K], the protein stability index is 2.69. On to ILGKVILWILHFLLECYIQYHHSK [L12F], for which the protein stability index amounted to 2.47.

With ILGKVILWILHRLLECYIQYHHSK [L12R], the protein stability index stood at 2.87. Turning to ILGKVILWILHSLLECYIQYHHSK [L12S], the protein stability index was 3.61. For ILGKVILWILHTLLECYIQYHHSK [L12T], the protein stability index amounted to 3.88. Consider ILGKVILWILHQLLECYIQYHHSK [L12Q], for which the protein stability index stood at 4.15. Consider ILGKVILWILHELLECYIQYHHSK [L12E], for which the protein stability index came to 3.21.

In the case of ILGKVILWILHMLLECYIQYHHSK [L12M], the protein stability index came out at 2.29. Consider ILGKVILWILHPLLECYIQYHHSK [L12P], for which the protein stability index is 3.07.

Regarding ILGKVILWILHDLLECYIQYHHSK [L12D], the protein stability index turned out to be 3.31. Take ILGKVILWILHNLLECYIQYHHSK [L12N]: the protein stability index was determined as 3.52. With ILGKVILWILHGLLECYIQYHHSK [L12G], the protein stability index was 3.98. With ILGKVILWILHWLLECYIQYHHSK [L12W], the protein stability index stood at 3.59.

Take ILGKVILWILHHLLECYIQYHHSK [L12H]: the protein stability index stood at 2.19. Regarding ILGKVILWILHALLECYIQYHHSK [L12A], the protein stability index was 3. With ILGKVILWILHVLLECYIQYHHSK [L12V], the protein stability index is 2.88. The same measure for ILGKVILWILHYLLECYIQYHHSK [L12Y]: 2.14; for ILGKVILWITHLLLECYIQYHHSK [L10T]: 2.19; for ILGKVILWIDHLLLECYIQYHHSK [L10D]: 2.76. With ILGKVILWIWHLLLECYIQYHHSK [L10W], the protein stability index is 3.83.

As to ILGKVILWIIHLLLECYIQYHHSK [L10I], the protein stability index amounted to 3.22.

For ILGKVILWIFHLLLECYIQYHHSK [L10F], the protein stability index was found to be 3.04. With ILGKVILWIAHLLLECYIQYHHSK [L10A], the protein stability index is 2.54. Take ILGKVILWIKHLLLECYIQYHHSK [L10K]: the protein stability index amounted to 1.75. Take ILGKVILWIEHLLLECYIQYHHSK [L10E]: the protein stability index was 5.03. Regarding ILGKVILWICHLLLECYIQYHHSK [L10C], the protein stability index stood at 1.5.

For ILGKVILWIPHLLLECYIQYHHSK [L10P], the protein stability index was determined as 3.36.

For ILGKVILWIMHLLLECYIQYHHSK [L10M], the protein stability index is 3.36. ILGKVILWIRHLLLECYIQYHHSK [L10R]: the protein stability index came to 1.98. For ILGKVILWIVHLLLECYIQYHHSK [L10V], the protein stability index was 2.85.

With ILGKVILWISHLLLECYIQYHHSK [L10S], the protein stability index is 2.3. In the case of ILGKVILWINHLLLECYIQYHHSK [L10N], the protein stability index came out at 3.04. For ILGKVILWILHLLLEGYIQYHHSK [C16G], the protein stability index turned out to be 3.5. Consider ILGKVILWILHLLLEQYIQYHHSK [C16Q], for which the protein stability index was 2.86. As for ILGKVILWILHLLLEDYIQYHHSK [C16D], the protein stability index worked out at 2.6.

For the variant ILGKVILWILHLLLEEYIQYHHSK [C16E], the protein stability index came out at 2.48. Consider ILGKVILWILHLLLEKYIQYHHSK [C16K], for which the protein stability index came to 3.66. In the case of ILGKVILWILHLLLENYIQYHHSK [C16N], the protein stability index was found to be 3.32. ILGKVILWILHLLLEAYIQYHHSK [C16A]: the protein stability index came to 3.38. ILGKVILWILHLLLEYYIQYHHSK [C16Y]: the protein stability index stood at 3.21. With ILGKVILWILHLLLETYIQYHHSK [C16T], the protein stability index amounted to 3.84.

On to ILGKVILWILHLLLEWYIQYHHSK [C16W], for which the protein stability index turned out to be 2.31. In the case of ILGKVILWILHLLLEPYIQYHHSK [C16P], the protein stability index came out at 2.88.

Regarding ILGKVILWILHLLLEMYIQYHHSK [C16M], the protein stability index was 3.3. The same measure for ILGKVILWILHLLLEIYIQYHHSK [C16I]: 2.95; for ILGKVILWILHLLLESYIQYHHSK [C16S]: 5.42. Regarding ILGKVILWILHLLLEFYIQYHHSK [C16F], the protein stability index stood at 2.6.

The record behind these values is the supplement of paper PMC10567573.
